Patent publication US20130064825A1

Assays:
[1] = molecular target: cynomolgus monkey PCSK9, V5-6xHIS tagged (cynomolgus monkey); assay: SPR (Biacore 2000), antibody amine-coupled on CM5 chip, PCSK9 injected, pH 7.4
[2] = molecular target: cynomolgus monkey PCSK9, V5-6xHIS tagged (cynomolgus monkey); assay: Biacore solution equilibrium assay: PCSK9 mixed with 21B12.1, free PCSK9 read on immobilised 21B12
[3] = molecular target: cynomolgus monkey PCSK9, V5-6xHIS tagged (cynomolgus monkey); assay: KinExA solution equilibrium, PCSK9-coated beads; cyno PCSK9

Binder	Kd [1] [pM]	Kd [2] [pM]	Kd [3] [pM]
21B12, anti-PCSK9 huIgG4 (antibody, V domains shown) VH: QVQLVQSGAEVKKPGASVKVSCKASGYTLTSYGISWVRQAPGQGLEWMGWVSFYNGNTNYAQKLQGRGTMTTDPSTSTAYMELRSLRSDDTAVYYCARGYGMDVWGQGTTVTVSS VL: QSALTQPASVSGSPGQSITISCTGTSSDVGGYNSVSWYQQHPGKAPKLMIYEVSNRPSGVSNRFSGSKSGNTASLTISGLQAEDEADYYCNSYTSTSMVFGGGTKLTVLQ	360	11	
16F12, anti-PCSK9 huIgG4 (antibody, V domains shown) VH: QVHLVESGGGVVQPGRSLRLSCAASGFTFNSFGMHWVRQAPGKGLEWVALIWSDGSDEYYADSVKGRFTISRDNSKNTLYLQMNSLRAEDTAVYYCARAIAALYYYYGMDVWGQGTTVTVSS VL: QSVLTQPPSVSAAPGQKVTISCSGSSSNIGNNFVSWYQQLPGTAPKLLIYDYNKRPSGIPDRFSGSKSGTSATLGITGLQTGDEADYYCGTWDSSLSAYVFGTGTRVTVLQ	870		16
